# Experimental data published in article PMC7353425.
# Molecular target: 3 × LPG (truncated derivative of linker-protein G with three linker sequence repeats) (Streptococcus strain G148)
# Assay: QCM-D; 3 × LPG (3.27–654 nM) adsorbed on SiO2-coated sensor, free sites blocked with 1 mg/mL BSA, trastuzumab injected at 1 µg/mL; 1 × PBS pH 7.4, 22 °C, flow 150 µL/min; mass from the Voigt viscoelastic model
substance,measurement,value
trastuzumab (humanized anti-HER2 monoclonal antibody),mass deposited for bound trastuzumab,1020 ng/cm^2
